These results are taken from patent US5710022, “Nuclear mitotic phosphoprotein” (Board of Regents of the University of Texas System, dated 1998).

The target in experiment [1] is T1, purified p56-RB (Homo sapiens (Human), UniProt P06400).
T1 sequence: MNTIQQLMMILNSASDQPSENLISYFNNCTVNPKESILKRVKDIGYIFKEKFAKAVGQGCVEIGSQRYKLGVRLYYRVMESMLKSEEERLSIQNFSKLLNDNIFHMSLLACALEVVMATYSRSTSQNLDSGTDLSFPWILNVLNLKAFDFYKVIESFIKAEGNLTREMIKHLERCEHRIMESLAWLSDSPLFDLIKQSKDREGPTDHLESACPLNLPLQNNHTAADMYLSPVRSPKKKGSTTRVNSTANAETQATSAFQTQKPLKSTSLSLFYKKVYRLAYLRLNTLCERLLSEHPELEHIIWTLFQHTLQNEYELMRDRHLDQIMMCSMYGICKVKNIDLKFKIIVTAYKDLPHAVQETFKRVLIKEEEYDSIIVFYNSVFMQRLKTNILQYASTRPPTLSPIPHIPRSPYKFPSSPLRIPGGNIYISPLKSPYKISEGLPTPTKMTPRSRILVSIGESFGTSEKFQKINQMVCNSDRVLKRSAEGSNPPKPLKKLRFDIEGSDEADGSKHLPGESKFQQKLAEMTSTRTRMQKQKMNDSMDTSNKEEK
The experiment can be described thus: blot of purified MBP fusion proteins probed with the Rb-sandwich.

For experiment [2], the target named is T1, purified p56-RB. In words: blot of purified GST fusion proteins probed with the Rb-sandwich (figure legend). An excerpt:
(§1) (A) Two identical blots containing seven purified MBP fusion proteins were probed with either the "Rb-sandwich" (lanes 1–7) or with an antibody to MBP (New England Biolabs) (lanes 8–14). […] (B) Similarly, two identical blots of the purified GST-fusion proteins were probed with either the "Rb-sandwich" (lanes 15–17) or with an antibody to GST (lanes 18–20). […] (C) A diagram of the different constructs used in this experiment. […] (D) Sequence comparison of the Rb-binding region of mitosin with the Rb-binding domain of E2F-1 (in bold letters) and neighboring residues (SEQ. ID NOS: 3 and 4). […] Dashed lines indicate conserved residues and solid lines indicate identical residues.

Experiment [3] deals with T1, purified p56-RB. The experiment can be described thus: blot of purified MBP fusion proteins probed with the Rb-sandwich; the faint band in lane 3 is called an artifact in paragraph 24.
Source text: as §1

B1: MBP-T antigen (other)
chain: MDKVLNREESLQLMDLLGLERSAWGNIPLMRKAYLKKCKEFHPDKGGDEEKMKKMNTLYKKMEDGVKYAHQPDFGGFWDATEIPTYGTDEWEQWWNAFNEENLFCSEEMPSSDDEATADSQHSTPPKKKRKVEDPKDFPSELLSFLSHAVFSNRTLACFAIYTTKEKAALLYKKIMEKYSVTFISRHNSYNHNILFFLTPHRHRVSAINNYAQKLCTFSFLICKGVNKEYLMYSALTRDPFSVIEESLPGGLKEHDFNPEEAEETKQVSWKLVTEYAMETKCDDVLLLLGMYLEFQYSFE
Consider B1, for which the binding result in experiment [1] is “binds”. For the molecule MSGIHPAEDTEGTEFEPEGLPEVVKKGFADIPTGKTSPYILRRTTM (other) [GST-1045], in experiment [2], the binding result is on record as “binds”.

B2: MBP-10/NI (other)
chain: LGPVVPGPSPIPSVTEKRLSSGQNKASGKRQRSSGIWENGGGPTPATPESFSKKSKKAVMSGIHPAEDTEGTEFEPEGLPEVVKKGFADIPTGKTSPYILRRTTMATRTSPRLAAQKLALSPLSLGKENLAESSKPTAGGSRSQKVKVAQRSPVDSGTILREPTTKSVPVNNLPERSPTDSPREGLRVKRGRLVPSPKAGLESKGSENCKVQ
Turning to B2, the binding result in experiment [1] was “binds”.

B3: MBP-10/H (other)
chain: LLQGLDEAKNNYIVLQSSVNGLIQEVEDGKQKLEKKDEEISRLKNQIQDQEQLVSKLSQVEGEHQLWKEQNLELRNLTVELEQKIQVLQSKNASLQDTLEVLQSSYKNLENELELTKMDKMSFVEKVNKMTAKETELQREMHEMAQKTAELQEELSGEKNRLAGELQLLLEEIKSSKDQLKELTLENSELKKSLDCMHKDQVEKEGKVREEIAEYQLRLHEAEKKHQALLLDTNKQYEVEIQTYREKLTSKEECLSSQKLEIDLLKSSKEELNNSLKATTQILEELKKTKMDNLKYVNQLKKENERAQGKMKLLIKSCKQLEEEKEILQKELSQLQAAQEKQKTGTVMDTKVDELTTEIKELKETLEEKTKEADEYLDKYCSLLISHEKLEKAKEMLETQVAHLCSQQSKQDSRGSPLLGPVVPGPSPIPSVTEKRLSSGQNKA
As to B3, in experiment [3], the binding result is “no binding”.

B4: MBP-10 (other)
chain: LLQGLDEAKNNYIVLQSSVNGLIQEVEDGKQKLEKKDEEISRLKNQIQDQEQLVSKLSQVEGEHQLWKEQNLELRNLTVELEQKIQVLQSKNASLQDTLEVLQSSYKNLENELELTKMDKMSFVEKVNKMTAKETELQREMHEMAQKTAELQEELSGEKNRLAGELQLLLEEIKSSKDQLKELTLENSELKKSLDCMHKDQVEKEGKVREEIAEYQLRLHEAEKKHQALLLDTNKQYEVEIQTYREKLTSKEECLSSQKLEIDLLKSSKEELNNSLKATTQILEELKKTKMDNLKYVNQLKKENERAQGKMKLLIKSCKQLEEEKEILQKELSQLQAAQEKQKTGTVMDTKVDELTTEIKELKETLEEKTKEADEYLDKYCSLLISHEKLEKAKEMLETQVAHLCSQQSKQDSRGSPLLGPVVPGPSPIPSVTEKRLSSGQNKASGKRQRSSGIWENGGGPTPATPESFSKKSKKAVMSGIHPAEDTEGTEFEPEGLPEVVKKGFADIPTGKTSPYILRRTTMATRTSPRLAAQKLALSPLSLGKENLAESSKPTAGGSRSQKVKVAQRSPVDSGTILREPTTKSVPVNNLPERSPTDSPREGLRVKRGRLVPSPKAGLESKGSENCKVQ
As for B4, the binding result in experiment [1] is “binds”.

B5: MBP-10/KN (other)
chain: LAGELQLLLEEIKSSKDQLKELTLENSELKKSLDCMHKDQVEKEGKVREEIAEYQLRLHEAEKKHQALLLDTNKQYEVEIQTYREKLTSKEECLSSQKLEIDLLKSSKEELNNSLKATTQILEELKKTKMDNLKYVNQLKKENERAQGKMKLLIKSCKQLEEEKEILQKELSQLQAAQEKQKTGTVMDTKVDELTTEIKELKETLEEKTKEADEYLDKYCSLLISHEKLEKAKEMLETQVAHLCSQQSKQDSRGSPLLGPVVPGPSPIPSVTEKRLSSGQNKASGKRQRSSGIWENGGGPTPATPESFSKKSKKAVMSGIHPAEDTEGTEFEPEGLPEVVKKGFADIPTGKTSPYILRRTTMATRTSPRLAAQKLALSPLSLGKENLAESSKPTAGGSRSQKVKVAQRSPVDSGTILREPTTKSVPVNNLPERSPTDSPREGLRVKRGRLVPSPKAGLESKGSENCKVQ
Turning to B5, in experiment [1], the binding result is “binds”.

B6: MBP-10/NB (other)
chain: LLQGLDEAKNNYIVLQSSVNGLIQEVEDGKQKLEKKDEEISRLKNQIQDQEQLVSKLSQVEGEHQLWKEQNLELRNLTVELEQKIQVLQSKNASLQDTLEVLQSSYKNLENELELTKMDKMSFVEKVNKMTAKETELQREMHEMAQKTAELQEELSGEKNRLAGELQLLLEEIKSSKDQLKELTLENSE
Take B6: the binding result in experiment [1] is given as “no binding”.
